Consider 141 substances from the supplement of paper PMC12042874.

The data set is described as follows: amyloid nucleation score (Sup35N fusion, yeast selection) (log enrichment); library NNK1; higher = more nucleation; inactive = no reads after selection. In outline:
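The nucleation score is the DiMSum log enrichment of output over input reads, centred on the mode score of non-aggregating sequences. Only sequences with 100 or more input reads were scored, using Illumina sequencing of input and output plasmid inserts. Psi-negative yeast expressing Sup35N fused to peptides of 20 random codons were induced 24 hours with 100 μM copper sulfate and grown 7 days at 30°C on medium lacking adenine and uracil.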

± gives the uncertainty stated by the source.

The substance GWQRSRVAVAPVVVTQSCGV displayed an amyloid nucleation score of -0.671 ± 1.6.
Next, LWMFRFNYYDVLPCGMPGLC: 0.694 ± 0.66; CVWNYCAWFTVARNTTLFNN: -0.508 ± 0.89.
The same measure for FADNWLCKIRYSCGISLSKY: -0.739 ± 0.39; for LMYSVS: 0.434 ± 0.38.
For the substance YALCKLSA, the amyloid nucleation score worked out at 0.851 ± 0.79.
In turn, CKQCRE registered an amyloid nucleation score of -0.01 ± 0.74.
In the case of KFACLRWVICKYCLWV, the amyloid nucleation score is -0.412 ± 0.49.
The substance LNWSNKWSFTNMRRFCAMF returned an amyloid nucleation score of 0.01 ± 0.26.
The same measure for MHPFVRSEK: 0.168 ± 0.36; for EDLRVTGAKGYGCAECRACV: -0.186 ± 1.9.
The same measure for MMRGTLC: 0.458 ± 0.41.
Next, SFCAYFVAGIAGNIRVS: 0.098 ± 0.42; RLVSRPRSLLQCYWGLVC: 0.392 ± 1.4; KIRSPYNMMPMLTLGTSKGV: 0.845 ± 0.61.
Consider TTFFYYSEGKIR, for which the amyloid nucleation score is -0.657 ± 0.51.
Substance TEGFNTANA displayed an amyloid nucleation score of -0.34 ± 1.1.
Next, AVNYIADFGTVDRCCITFPL: 0.645 ± 0.4.
The same measure for VSGSVFTNMIANILSTSRYV: -0.179 ± 1.6.
The same measure for GGSMGHPGTLMERSYNLVVA: 0.951 ± 0.46.
In turn, SGHDGARVVMRRILYTSKSG yielded an amyloid nucleation score of 0.291 ± 0.34.
Next, GLICNIDVRMRFVFMVRGSP: 2.45 ± 0.21; ICKLRNSTGSTRIT: 0.227 ± 0.45; NYTVRENGSK: -0.127 ± 0.27.
Next, TSMWTYY: 0.298 ± 0.33.
SLMTQDCNFRYYLKRCI returned an amyloid nucleation score of 0.894 ± 0.63.
Next, EHTRKGGSCNMLQRQPFCCT: 0.487 ± 0.52; RVSFQIVTVGWC: -1.13 ± 1.2; LSCYLYALVKGLGLRVGHIK: 0.177 ± 0.55.
VGSSLDMPAPKRVGSEYCSV: the amyloid nucleation score came to 0.279 ± 0.66.
The same measure for DCLWPLVSMFLVPLRASKVR: 0.128 ± 0.44.
Next, NILMFEMVVRSFIGLTEKFL: 0.69 ± 1; ITYINLSSSYKIPRPTHMRI: 6.07 ± 0.065; LGNIKFITYVERCTQEVVSY: -1.49 ± 1.8.
For the substance CFYAA, the amyloid nucleation score is -0.557 ± 0.56.
The same measure for LFIKFGTHVRYILA: -0.202 ± 0.42; for PWSPTVIRPVFSEKGQFSQL: -0.538 ± 0.59; for LIQIDLF: -0.264 ± 0.56.
Next, CSSKGCLVSESFLHLMTNLC: 0.969 ± 0.42; GIVSAESWSLLQDRHFGAVK: 0.578 ± 0.55; MTCDVSKMCVSLRVVTSNGG: 1.27 ± 0.31.
For the substance NAFSDRLTGCRLRGGMGRTS, the amyloid nucleation score was -0.526 ± 0.88.
The same measure for ENARHRCDQ: 0.571 ± 0.38.
The same measure for FQVLYNGVMCHYSCWCVWKV: 1.05 ± 0.19; for YEGGM: -0.334 ± 0.73; for RMLLRFYIATGYLWSIQNCR: “inactive”.
The substance FVLLNLPLVKRVCRIVGYWG displayed an amyloid nucleation score of -0.327 ± 0.51.
DMVVRDQHL gave an amyloid nucleation score of 4.7 ± 0.066.
For GSMSGTTDIPC, the amyloid nucleation score is -0.158 ± 0.51.
In turn, CSVTLVVRV had an amyloid nucleation score of 0.676 ± 0.63.
Next, TTPGALSSRTMSMPDVLGIE: 1.37 ± 0.5; TLSRFPLAALNLVRVR: 0.3 ± 0.86.
In turn, RMMVPYNHFYKSLWSGSTAY displayed an amyloid nucleation score of 0.959 ± 0.68.
The same measure for ALRGMWNKVRSGGWCYRCTW: -0.05 ± 1.4.
The same measure for RRWGFRAERVL: 0.269 ± 0.61; for NYVSLGDVKRRMPGLFELTA: 0.048 ± 0.43; for AVTCSPPGPMQGLTFLFMAL: -1.11 ± 1.
Next, LINSFLVLWKPFIFAEGRTR: 7.903 ± 0.066.
Take GIDTKDFFVAGMLGCVEGMD: the amyloid nucleation score was determined as 0.245 ± 0.7.
Next, NLFLVIPAFDLLMFGSERSS: 5.55 ± 0.063; AARELKIVTRVMHFDADREA: 0.103 ± 0.43; LGGGTFVRWLKSILSFLLW: 0.325 ± 0.46.
CSSWVMGLIFWECLKNMDKV displayed an amyloid nucleation score of -1.39 ± 1.3.
Next, ACYRATNMSCRRGHKLAGGF: “inactive”.
As to SCDFILLLAVT, the amyloid nucleation score was 0.352 ± 0.36.
Consider FWVRSGCVSMYGPRRVALEV, for which the amyloid nucleation score is -0.003 ± 0.43.
GGPVREYTRMSPSVGVLDEA: the amyloid nucleation score stood at 0.489 ± 0.86.
The substance NKLAHSNVDKAKLRDNPQAG yielded an amyloid nucleation score of -0.407 ± 1.
Next, QWNEDLSLWPDLKYGHMLLS: 0.052 ± 0.52.
Consider SWYIKVFRFGLFHWSSGVGW, for which the amyloid nucleation score result was “inactive”.
Take PYKLGCICITNDFSQAPTVA: the amyloid nucleation score was -0.652 ± 0.92.
Next, TVIRSVIIPITPPIIR: 1.57 ± 0.56; SLYCNGVRMPLAETSGNEHL: -0.091 ± 0.43; CYCFET: -0.381 ± 0.71.
Turning to DDLPPRRNASFQWNKGFFRV, the amyloid nucleation score is -0.448 ± 1.7.
The substance SWAWIACIGAMNPEN gave an amyloid nucleation score of -0.478 ± 1.4.
On to ICCISKILLFCISM, for which the amyloid nucleation score came out at 6.53 ± 0.091.
DINWYTLDAHV came in with an amyloid nucleation score of -1.86 ± 1.9.
Regarding EISVKECGGSLDYNANLRDR, the amyloid nucleation score entry was “inactive”.
The same measure for AYLVFDGQ: -0.283 ± 0.37; for MKMNDYMGVRDWVHLIDVCS: “inactive”; for RLLEIWFMLRFGLFVSQCTI: -0.148 ± 0.34.
With TMYSVYRFVGCKKSFMVRKG, the amyloid nucleation score was 0.454 ± 0.4.
Turning to GKHLTRNAWGRLSLVTDCVR, the amyloid nucleation score was 0.486 ± 0.5.
The same measure for VLGERYCPSNVLWLHLCGGE: 0.315 ± 0.28.
Consider YGETGVINWRV, for which the amyloid nucleation score was -0.217 ± 0.44.
Next, RGTWNDMASGEEVVAFIGEY: 0.51 ± 0.35.
Next, ALLGFRSCMQASFFFFRWFI: -0.801 ± 0.89; GLACYM: 0.413 ± 0.4; YHVRLV: 0.147 ± 0.34.
Substance EITVAVSDYGVGSTWSG displayed an amyloid nucleation score of 0.381 ± 0.84.
The same measure for RRAYIYWNRTCFFLVILLFQ: 0.538 ± 0.84.
Next, LMLVRLVCLHLDDETHIRQR: “inactive”; VSCANMNIDELTWHVDWWCL: 7.597 ± 0.047.
Next, YDTFSPRSWS: 2.02 ± 0.62; GVMPWLR: -0.123 ± 0.99; TCILDHGPSMGRHSLGALIL: -0.969 ± 1.1.
Regarding QVFVIIIFPCMQWYDMYCSD, the amyloid nucleation score is 0.356 ± 0.55.
Regarding SLLTYQ, the amyloid nucleation score is 0.757 ± 0.27.
The same measure for SRVSLRRQCYVRVNGLCLYI: 1.84 ± 0.3; for MVKYYNTQHDGVSFIEIRLL: 0.527 ± 0.33; for MASRHKEWRCVMYEHGLRAC: 0.58 ± 1.2.
The same measure for HAIGTQMVTLGLRSISFSWN: 1.19 ± 0.67.
For YCCGDTPTFCSLKFIMS, the amyloid nucleation score worked out at 7.059 ± 0.047.
Next, FSGVMLVEWLTSPRHLRRAL: 0.678 ± 1.1; RGEKLQEVMSVGYWIGFFNN: 0.907 ± 0.27; NFFYT: -0.758 ± 1.1.
Next, MYGCFSGGSVFSSYAALFVI: -0.766 ± 0.41; GKLDCVKVLNVHCP: 0.527 ± 0.61; TELSEHVRSRLWSKG: 0.355 ± 0.42.
As to SSYRNWYRRSGDQLYYLEP, the amyloid nucleation score was 0.876 ± 0.42.
Regarding YLDGVIWFLK, the amyloid nucleation score was -0.591 ± 0.31.
For the substance SLINTRVPPLENNAC, the amyloid nucleation score is -0.443 ± 0.51.
Next, WSSYTFR: 0.839 ± 0.63.
LAHWHFNWSRILQCFYW: the amyloid nucleation score came out at 3.08 ± 0.095.
Next, TLTSRVENKFRMVIL: 3.46 ± 0.088; WSTLVKRSDFCVHWVLFGSG: -0.179 ± 0.46.
NYGAFY came in with an amyloid nucleation score of -0.13 ± 0.63.
For ISYRGSFHTNMWTCILRTAK, the amyloid nucleation score was 0.082 ± 0.42.
Substance RWPDQCLLMLWMVLLFPSWE showed an amyloid nucleation score of -0.552 ± 0.28.
Next, MDWNQGVAGATMIYLCFNNN: 7.881 ± 0.064; MMVLKFGMLVLSGDLAPATS: 0.854 ± 0.72; TYSSARDSS: -0.209 ± 0.63.
The same measure for LSEYYKAKGDRVTWPQFLTT: -0.453 ± 0.49; for GSRVVQRYVAVHACVHERVT: 0.589 ± 0.4.
The same measure for LQVVALW: 0.123 ± 0.56; for TFQGARYYYWPAVF: 1.33 ± 0.63.
Turning to DNMFDTWLSGATV, the amyloid nucleation score is -0.554 ± 0.66.
The same measure for YYTVLLRS: -0.453 ± 0.52; for FSVMKCWPSPRPVNRFLIYA: -0.706 ± 0.46; for SLCVWDSFNPERTGLFMRWI: 0.99 ± 0.93.
With AVVKAVVNGRILFYRTREVS, the amyloid nucleation score was found to be 0.226 ± 0.58.
Consider FHDLGSKCYSMRGTADCFSR, for which the amyloid nucleation score was 0.347 ± 0.72.
The same measure for TVIRESIPKFWFYTLGMLKV: -0.6 ± 0.35; for VHYWLVNSSTKRGRPFASAF: -0.231 ± 0.36; for FCRRGSWVEPLLTCRYAMEA: -0.155 ± 0.64.
For the substance LMAPLCICKNFRPELWFNRI, the amyloid nucleation score is -0.115 ± 0.58.
In turn, PSRVKLKISKLL came in with an amyloid nucleation score of -0.647 ± 0.94.
RYMDMLLRTDWDWLVSQCRF gave an amyloid nucleation score of -0.344 ± 0.33.
The same measure for GRDLPYMTRRNTLWSSKVVF: 0.206 ± 0.35.
On to CHHSYCMITPLTVSTARNGW, for which the amyloid nucleation score is 0.749 ± 0.35.
